From article PMC6630525 (Molecules, 2019)
Several values for one entry are separate records, joined by “and”; a condition that tells them apart may be missing. Identical values can stand only once.

What was measured:
[1] = target: the molecule itself; assay: SEC; analytical gel filtration, Superdex 200 10/300 GL, 4 °C, 20 mM Tris-HCl with 0.2, 0.5 or 2.0 M NaCl after dialysis into the same buffer
[2] = target: the molecule itself; assay: AUC; sedimentation velocity, 40,000 rpm, 20 °C, samples diluted in SEC buffer to OD280 0.5; c(s) distribution and non-interacting species model
[3] = target: the molecule itself; assay: SAXS; ESRF BM29, samples at 5, 3 and 2 mg/mL, 10 °C; molecular mass estimated with ATSAS

Protein	stoichiometry N [2]	further results
full-length Arabidopsis thaliana NAP1-Related Protein 1 (AtNRP1-His) (natural protein, UniProt Q9CA59 1-256, looked up, NAP1-related protein 1 (AtNRP1), Arabidopsis thaliana; full-length ORF optimised for bacterial expression (Genscript) in pET22b(+) between NdeI and XhoI; also called full-length AtNRP1; not shown: His6, C-terminal, kept) MVADKSKKSKIEEKGEEENLEQIDAELVLSIEKLQEIQDDLEKINEKASDEVLEVEQKYNVIRKPVYDKRNEVIQSIPGFWMTAFLSHPALGDLLTEEDQKIFKYLNSLEVEDAKDVKSGYSITFHFTSNPFFEDAKLTKTFTFLEEGTTKITATPIKWKEGKGLPNGVNHDDKKGNKRALPEESFFTWFTDAQHKEDAGDEIHDEVADIIKEDLWSNPLTYFNNDADEEDFDGDDDGDEEGEEDDDDEEEEDGEE	–	binding result [1]: binds
AtNRP2 NT/CT (AtNRP2 residues 14-223) (domain or fragment, Arabidopsis thaliana, UniProt Q8LC68-2 14-223, looked up, NAP1-related protein 2 (AtNRP2), Arabidopsis thaliana, residues 14-223 (first 13 and last 35 residues removed), in pGEX-6P-1 between BamHI and SalI; A few vector residues may remain at the N-terminus after PreScission cleavage (surmise); Heated at 40 °C for 10 min before crystallization; also called AtNRP2_(14-223); GST-AtNRP2_(14-223); not shown: GST, N-terminal, cleaved) ENVEQIDAELVLSIEKLQEIQDDLEKINEKASDEVLEVEQKYNVIRKPVYDKRNEIIKTIPDFWLTAFLSHPALGELLTEEDQKIFKYLSSLDVEDAKDVKSGYSITFSFNPNPFFEDGKLTKTFTFLEEGTTKITATPIKWKEGKGLANGVNHEKNGNKRALPEESFFTWFSDAQHKEDVEDEMQDEQVADIIKEDLWPNPLTYFNNDA	2	–
AtNRP1 NT/CT (AtNRP1 residues 14-226) (domain or fragment, Arabidopsis thaliana, UniProt Q9CA59 14-226, looked up, NAP1-related protein 1 (AtNRP1), Arabidopsis thaliana, residues 14-226, in pGEX-6P-1 between BamHI and SalI; A few vector residues may remain at the N-terminus after PreScission cleavage (surmise); also called AtNRP1_(14-226); GST-AtNRP1_(14-226); not shown: GST, N-terminal, cleaved) KGEEENLEQIDAELVLSIEKLQEIQDDLEKINEKASDEVLEVEQKYNVIRKPVYDKRNEVIQSIPGFWMTAFLSHPALGDLLTEEDQKIFKYLNSLEVEDAKDVKSGYSITFHFTSNPFFEDAKLTKTFTFLEEGTTKITATPIKWKEGKGLPNGVNHDDKKGNKRALPEESFFTWFTDAQHKEDAGDEIHDEVADIIKEDLWSNPLTYFNND	–	stoichiometry N [3]: 2
full-length Arabidopsis thaliana NAP1-Related Protein 2 (AtNRP2-His) (natural protein, UniProt Q8LC68-2 1-256, looked up, NAP1-related protein 2 (AtNRP2), Arabidopsis thaliana; full-length ORF optimised for bacterial expression (Genscript) in pET22b(+) between NdeI and XhoI; Predominantly a dimer in solution; tetramer and a higher species also seen by AUC; also called full-length AtNRP2; not shown: His6, C-terminal, kept) MVTDKSKKAKTEEENVEQIDAELVLSIEKLQEIQDDLEKINEKASDEVLEVEQKYNVIRKPVYDKRNEIIKTIPDFWLTAFLSHPALGELLTEEDQKIFKYLSSLDVEDAKDVKSGYSITFSFNPNPFFEDGKLTKTFTFLEEGTTKITATPIKWKEGKGLANGVNHEKNGNKRALPEESFFTWFSDAQHKEDVEDEMQDEQVADIIKEDLWPNPLTYFNNDADEEDFDGDDDGDEEEKEGDSDEDDDEEDEVGEE	2 and 4	–
